This note sets out measurements from article PMC6823927.

For experiment [1], the target named is 175Cys-IgG1 (meditope-enabled trastuzumab IgG1 with Ala175 of the heavy chain changed to cysteine). Nature of the experiment: disulfide conjugation, dye-antibody ratio.
Experiment [2] concerns the target 175Cys-Fab (meditope-enabled trastuzumab Fab with Ala175 of the heavy chain changed to cysteine). Nature of the experiment: cross-linking.

Non-standard residues stand in square brackets, D forms with d. No end group written: not given here. Dip = N[C@H](C(=O)O)C(c1ccccc1)c1ccccc1

B1: SQFDA(Ph)2…-Alexa647 meditope (peptide)
peptide: SQFD[Dip]CTRRLQSGGSK-Alexa647
A word on the stoichiometry N: it is a count of units in the complex or per binding partner. Take B1: in experiment [1], the stoichiometry N is 1.8 dyes per IgG.

B2: SQFDA(Ph)2… meditope (peptide)
peptide: SQFD[Dip]CTRRLQSGGSK
As to B2, the stoichiometry N (meditope per Fab) in experiment [2] is 1.
